Measured values: IntAct's records for PubMed 16525419

B1: Nephrin (Homo sapiens), O60500 (parent)
chain: MALGTTLRASLLLLGLLTEGLAQLAIPASVPRGFWALPENLTVVEGASVELRCGVSTPGSAVQWAKDGLLLGPDPRIPGFPRYRLEGDPARGEFHLHIEACDLSDDAEYECQVGRSEMGPELVSPRVILSILVPPKLLLLTPEAGTMVTWVAGQEYVVNCVSGDAKPAPDITILLSGQTISDISANVNEGSQQKLFTVEATARVTPRSSDNRQLLVCEASSPALEAPIKASFTVNVLFPPGPPVIEWPGLDEGHVRAGQSLELPCVARGGNPLATLQWLKNGQPVSTAWGTEHTQAVARSVLVMTVRPEDHGAQLSCEAHNSVSAGTQEHGITLQVTFPPSAIIILGSASQTENKNVTLSCVSKSSRPRVLLRWWLGWRQLLPMEETVMDGLHGGHISMSNLTFLARREDNGLTLTCEAFSEAFTKETFKKSLILNVKYPAQKLWIEGPPEGQKLRAGTRVRLVCLAIGGNPEPSLMWYKDSRTVTESRLPQESRRVHLGSVEKSGSTFSRELVLVTGPSDNQAKFTCKAGQLSASTQLAVQFPPTNVTILANASALRPGDALNLTCVSVSSNPPVNLSWDKEGERLEGVAAPPRRAPFKGSAAARSVLLQVSSRDHGQRVTCRAHSAELRETVSSFYRLNVLYRPEFLGEQVLVVTAVEQGEALLPVSVSANPAPEAFNWTFRGYRLSPAGGPRHRILSSGALHLWNVTRADDGLYQLHCQNSEGTAEARLRLDVHYAPTIRALQDPTEVNVGGSVDIVCTVDANPILPGMFNWERLGEDEEDQSLDDMEKISRGPTGRLRIHHAKLAQAGAYQCIVDNGVAPPARRLLRLVVRFAPQVEHPTPLTKVAAAGDSTSSATLHCRARGVPNIVFTWTKNGVPLDLQDPRYTEHTYHQGGVHSSLLTIANVSAAQDYALFTCTATNALGSDQTNIQLVSISRPDPPSGLKVVSLTPHSVGLEWKPGFDGGLPQRFCIRYEALGTPGFHYVDVVPPQATTFTLTGLQPSTRYRVWLLASNALGDSGLADKGTQLPITTPGLHQPSGEPEDQLPTEPPSGPSGLPLLPVLFALGGLLLLSNASCVGGVLWQRRLRRLAEGISEKTEAGSEEDRVRNEYEESQWTGERDTQSSTVSTTEAEPYYRSLRDFSPQLPPTQEEVSYSRGFTGEDEDMAFPGHLYDEVERTYPPSGAWGPLYDEVQMGPWDLHWPEDTYQDPRGIYDQVAGDLDTLEPDSLPFELRGHLV

Assays:
nck1_human NCK1, P16333 = variants of: B1; conditions: with nck1_human NCK1, P16333
nck2_human NCK2, O43639 [1] = variants of: B1; conditions: with nck2_human NCK2, O43639
nck2_human NCK2, O43639, sequence (O43639 whole entry): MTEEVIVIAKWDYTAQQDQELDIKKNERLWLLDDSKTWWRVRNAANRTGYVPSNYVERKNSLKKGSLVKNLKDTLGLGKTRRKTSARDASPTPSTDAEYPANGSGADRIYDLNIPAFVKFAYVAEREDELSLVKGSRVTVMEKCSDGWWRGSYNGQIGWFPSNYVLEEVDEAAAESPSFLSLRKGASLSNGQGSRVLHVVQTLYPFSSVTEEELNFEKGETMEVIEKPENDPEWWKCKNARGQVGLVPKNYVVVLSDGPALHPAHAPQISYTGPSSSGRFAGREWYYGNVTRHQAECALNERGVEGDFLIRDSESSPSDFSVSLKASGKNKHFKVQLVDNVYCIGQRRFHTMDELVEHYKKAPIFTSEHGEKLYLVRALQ

wasp_mouse Was, P70315 = variants of: B1; conditions: with wasp_mouse Was
wasp_mouse Was, P70315, sequence (P70315 whole entry): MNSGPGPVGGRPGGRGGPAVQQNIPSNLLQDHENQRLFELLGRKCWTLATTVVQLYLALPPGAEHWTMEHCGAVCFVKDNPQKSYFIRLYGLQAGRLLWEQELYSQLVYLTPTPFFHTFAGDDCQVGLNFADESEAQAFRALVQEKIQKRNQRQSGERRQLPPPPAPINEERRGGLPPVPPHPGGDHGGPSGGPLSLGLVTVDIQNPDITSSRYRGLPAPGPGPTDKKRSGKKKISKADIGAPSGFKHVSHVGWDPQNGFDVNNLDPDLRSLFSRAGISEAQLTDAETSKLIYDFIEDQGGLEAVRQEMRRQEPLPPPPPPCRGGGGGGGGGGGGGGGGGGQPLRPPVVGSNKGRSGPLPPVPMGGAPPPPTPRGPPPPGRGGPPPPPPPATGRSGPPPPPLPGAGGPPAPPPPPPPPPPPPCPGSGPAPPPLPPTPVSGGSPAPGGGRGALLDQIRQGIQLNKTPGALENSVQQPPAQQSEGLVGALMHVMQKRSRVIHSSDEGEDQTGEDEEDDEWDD

nck2_human NCK2, O43639 [2] = variants of: B1; conditions: with nck2_human NCK2, O43639; remark: listed apart in the source

Variant: Y1193F;Y1217F
- effect of a mutation on the interaction (nck1_human NCK1, P16333): decreasing interaction

Variant: Y1176F;Y1193F;Y1217F
- effect of a mutation on the interaction (nck1_human NCK1, P16333): decreasing interaction
- effect of a mutation on the interaction (nck2_human NCK2, O43639 [1]): disrupting interaction
- effect of a mutation on the interaction (wasp_mouse Was, P70315): disrupting interaction
- effect of a mutation on the interaction (nck2_human NCK2, O43639 [2]): disrupting interaction

Variant: Y1176F;Y1217F
- effect of a mutation on the interaction (nck1_human NCK1, P16333): decreasing interaction
